From article PMC7617670, “Activity Regulation of a Glutamine Amidotransferase Bienzyme Complex by Substrate-Induced Subunit Interface Expansion” (ACS catalysis, 2025)
Residue numbers refer to the chain shown, from its start. Names may count otherwise.

T1: PabB, synthase subunit of ADCS from Escherichia coli, as crystallized (His tag cleaved) (Escherichia coli, UniProt P05041 1-453)
T1 construct: PabB, synthase subunit of ADCS, E. coli; the gene was cloned into pET28a; Cho and Mg2+ in 8RP0; also called ADCS synthase subunit; source: E. coli BL21-Gold (DE3), purified (Ni-IMAC, TEV cleavage, reverse IMAC, preparative gel filtration); not shown: His6, N-terminal, cleaved
T1 sequence: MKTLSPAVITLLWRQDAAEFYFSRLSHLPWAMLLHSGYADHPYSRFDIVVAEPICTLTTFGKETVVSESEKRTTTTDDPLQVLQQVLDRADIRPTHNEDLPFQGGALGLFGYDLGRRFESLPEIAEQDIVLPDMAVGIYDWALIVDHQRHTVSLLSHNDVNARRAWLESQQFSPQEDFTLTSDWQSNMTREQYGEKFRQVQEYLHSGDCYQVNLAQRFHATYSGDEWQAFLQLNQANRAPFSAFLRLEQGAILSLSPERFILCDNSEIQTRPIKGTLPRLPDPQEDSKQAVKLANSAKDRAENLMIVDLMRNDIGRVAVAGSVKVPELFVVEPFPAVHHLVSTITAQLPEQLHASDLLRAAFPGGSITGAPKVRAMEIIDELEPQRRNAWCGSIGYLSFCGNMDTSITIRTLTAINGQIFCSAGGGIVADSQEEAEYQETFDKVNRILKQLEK

T2: PabA, glutaminase subunit of aminodeoxychorismate synthase (ADCS) from Escherichia coli, wild type (Escherichia coli, UniProt P00903 1-187)
T2 sequence: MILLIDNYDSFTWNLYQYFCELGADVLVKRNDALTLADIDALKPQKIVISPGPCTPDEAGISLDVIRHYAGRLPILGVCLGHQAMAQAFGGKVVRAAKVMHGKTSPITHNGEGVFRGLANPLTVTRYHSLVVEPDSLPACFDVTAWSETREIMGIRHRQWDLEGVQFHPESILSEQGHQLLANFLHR

B1: PabA, glutaminase subunit of ADCS from Escherichia coli, as crystallized, with glutamyl thioester (Gln-TE) on aC79 (enzyme)
chain: T2 sequence
modifications: glutamyl thioester (Gln-TE) adduct covalently bound to the catalytic C79
notes: PabA, class I glutaminase subunit of ADCS, E. coli; the gene was cloned into pET28a; Same construct as m20; the adduct forms in one of the two heterodimers of the crystals grown with Gln; also called PabA with Gln-TE; source: E. coli BL21-Gold (DE3), purified (Ni-IMAC, TEV cleavage, reverse IMAC, preparative gel filtration); crystallized with 0.2 M L-Gln; not shown: His6, N-terminal, cleaved
B2: PabA double variant [Y127A, S171A] (enzyme, Escherichia coli)
chain: T2 sequence with Y127A, S171A
notes: PabA, glutaminase subunit of ADCS, E. coli; construct as m1 with two exchanges; Made by mutagenesis from the construct of m1; source: E. coli BL21-Gold (DE3), purified (Ni-IMAC, preparative gel filtration)
B3: PabB, synthase subunit of aminodeoxychorismate synthase (ADCS) from Escherichia coli, wild type (enzyme)
chain: T1 sequence
B4: PabB variant bR311A (enzyme, Escherichia coli)
chain: T1 sequence with R311A
B5: PabB variant bD308N (enzyme, Escherichia coli)
chain: T1 sequence with D308N
B6: PabB variant bE119R (enzyme, Escherichia coli)
chain: T1 sequence with E119R
B7: PabB variant bD308E (enzyme, Escherichia coli)
chain: T1 sequence with D308E
B8: PabB variant bD308A (enzyme, Escherichia coli)
chain: T1 sequence with D308A
B9: PabA variant aR30E (enzyme, Escherichia coli)
chain: T2 sequence with R30E
notes: PabA, glutaminase subunit of ADCS, E. coli; construct as m1 with one exchange; Made by QuikChange mutagenesis from the construct of m1; source: E. coli BL21-Gold (DE3), purified (Ni-IMAC, preparative gel filtration)
B10: PabA variant aC54G (enzyme, Escherichia coli)
chain: T2 sequence with C54G
notes: as for B9
B11: PabA variant aC54A (enzyme, Escherichia coli)
chain: T2 sequence with C54A
notes: as for B9
B12: PabA variant aS171A (enzyme, Escherichia coli)
chain: T2 sequence with S171A
notes: as for B9
B13: PabA variant aH128A (enzyme, Escherichia coli)
chain: T2 sequence with H128A
notes: as for B9
B14: PabA variant aP53A (enzyme, Escherichia coli)
chain: T2 sequence with P53A
notes: as for B9

What follows are binders tested against T1, PabB, synthase subunit of ADCS from … (assay: crystal structure; ADCS heterodimer with Gln-TE on aC79; reservoir supplemented with 0.2 M L-Gln, with or without 14.4 mM Cho added afterwards; 0.1 M MES pH 6.5, 1.5 M magnesium sulfate, 18 °C). Conditions: both partners purified.

Binder | binding result
B1 | binds

The binders below were run against B3 (assay: SEC; analytical SEC with 5 mM L-Gln in the buffer; PabA and PabB mixed equimolar, 50 μM each; Superdex 200 increase 10/300 GL; 50 mM Tris/HCl pH 7.5, 50 mM KCl, 5 mM MgCl2, 2 mM DTT; 25 °C; without Cho). Conditions: both partners purified.

Binder | binding result
B2 | binds

What follows are binders tested against T2, PabA, glutaminase subunit of … (assay: cell-based or functional assay). Conditions: not given.

Binder | glutaminase catalytic efficiency kcat/KM^Gln (coupled GDH assay, 200 μM Cho, PabB in fourfold excess)
B3 | 1090 M⁻¹ s⁻¹
B4 | 100 M⁻¹ s⁻¹
B5 | 36 M⁻¹ s⁻¹
B6 | 60 M⁻¹ s⁻¹
B7 | 1540 M⁻¹ s⁻¹
B8 | 13 M⁻¹ s⁻¹

The binders below were run against B9 (assay: cell-based or functional assay). Conditions: not given.

Binder | glutaminase catalytic efficiency kcat/KM^Gln (coupled GDH assay, 200 μM Cho, PabB in fourfold excess)
B3 | 79 M⁻¹ s⁻¹

The binders below were run against B3 (assay: ITC; 250 μM PabB titrated into 25 μM PabA in the cell; 25 °C; 50 mM Tris/HCl pH 7.5, 50 mM KCl, 5 mM MgCl2; without Cho and Gln; one set of sites). Conditions: both partners purified.

Binder | Kd
B9 | 0.38 µM
B10 | 0.06 µM
B11 | 0.18 µM
B12 | 0.92 µM
B13 | 0.37 µM
B14 | 0.18 µM
